We go through one molecule from patent US20220162322A1.

The assay deals with BDCA-2 (CLEC4C, CD303) on human plasmacytoid dendritic cells (purified pDC or pDC within PBMC) (human) (UniProt Q8WTT0). Put plainly: cell-based or functional assay.
Sequence of BDCA-2 (CLEC4C, CD303) on human plasmacytoid dendritic cells (purified pDC or pDC within PBMC) (human) (Q8WTT0 whole entry): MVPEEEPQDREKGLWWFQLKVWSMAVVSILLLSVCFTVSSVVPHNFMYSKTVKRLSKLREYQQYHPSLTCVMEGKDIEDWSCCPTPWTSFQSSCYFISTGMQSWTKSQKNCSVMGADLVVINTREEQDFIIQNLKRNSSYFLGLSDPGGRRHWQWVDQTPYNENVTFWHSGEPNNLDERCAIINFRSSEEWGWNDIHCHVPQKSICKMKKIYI

B1: anti-BDCA-2 mAb BIIB059 (from patent WO2014093396) (antibody, INN chains, looked up, V domains shown)
VH: DVQLVESGGGLVKPGGSLRLSCAASGFTFSTYTMSWVRQAPGKGLEWVATISPGDSFGYYYPDSVQGRFTISRDNAKNSLYLQMNSLRAEDTAVYYCTRDIYYNYGAWFAYWGQGTLVTVSS
VL: DIQLTQSPSSLSASVGDRVTITCKASQSVDYDGDSYMNWYQQKPGKAPKLLIYAASTLESGVPSRFSGSGSGTDFTLTISSLQPEDFATYYCQQANEDPRTFGQGTKVEIK
In the case of B1, the IC50, nM; inhibition of IFNα from ODN stimulated healthy donor PBMC came out at 0.85 nM; the IC50, ng/ml; inhibition of IFNα from ODN stimulated healthy donor PBMC is 128 ng/mL; the IC90, nM; inhibition of IFNα from ODN stimulated healthy donor PBMC was determined as 7.68 nM; the IC90, ng/ml; inhibition of IFNα from ODN stimulated healthy donor PBMC turned out to be 1150 ng/mL.
